Data set [1] deals with HeLa Kyoto. Put plainly: solubility in G1/S (NP-40 vs SDS abundance) (log2 ratio); higher = more soluble. The conditions noted are these: cell cycle stage: G1/S.
In data set [2] the test system is HeLa Kyoto. Put plainly: melting temperature (median over replicates), in situ; higher = more thermally stable.
For data set [3], the system named is HeLa Kyoto. Put plainly: solubility change mitosis vs G1/S (difference of NP-40 vs SDS log2 ratios) (log2 ratio difference); higher = more soluble in mitosis.
Data set [4] relates to HeLa Kyoto. Put plainly: thermal stability score vs G1/S (z-score of summed log2 fold changes over temperatures); higher = more thermally stable than in G1/S.
Setting [5] is: cell cycle stage: early G1 (4.5 h after nocodazole release).
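Wherever melting temperature (median over replicates), in situ is given: HeLa Kyoto cells synchronized by double thymidine or nocodazole block, proteins quantified by TMT10plex mass spectrometry, three independent biological replicates.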
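Wherever solubility change mitosis vs G1/S (difference of NP-40 vs SDS log2 ratios) is given: synchronized HeLa Kyoto cells (double thymidine block for G1/S, nocodazole release for mitosis), protein amounts in NP-40 versus SDS lysates quantified by mass spectrometry, three biological replicates.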
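Wherever solubility in G1/S (NP-40 vs SDS abundance) is given: HeLa Kyoto cells arrested at G1/S by double thymidine block, proteins quantified by TMT10plex mass spectrometry in mild NP-40 versus SDS extracts, three biological replicates.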
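Wherever thermal stability score vs G1/S (z-score of summed log2 fold changes over temperatures) is given: synchronized HeLa Kyoto cells, proteins quantified by TMT10plex mass spectrometry, three biological replicates, mitosis taken 0.5 h after nocodazole release, G1/S directly after double thymidine block.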

Chain of MMTAG2 (chain, as listed by the source): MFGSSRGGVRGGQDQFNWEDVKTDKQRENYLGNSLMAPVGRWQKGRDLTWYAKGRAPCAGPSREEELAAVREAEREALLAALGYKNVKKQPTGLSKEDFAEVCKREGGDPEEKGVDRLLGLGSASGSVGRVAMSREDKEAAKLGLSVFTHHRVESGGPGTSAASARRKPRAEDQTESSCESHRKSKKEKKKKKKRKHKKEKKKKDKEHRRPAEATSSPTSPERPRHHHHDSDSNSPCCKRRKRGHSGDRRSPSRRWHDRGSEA

As to “MLCWGNASFGQLGLGGIDEEIVLEPRKSDFFINKRVRDVGCGLRHTVFVLDDGTVYTCGCNDLGQLGHEKSRKKPEQVVALDAQNIVAVSCGEAHTLALNDKGQVYAWGLDSDGQLGLVGSEECIRVPRNIKSLSDIQIVQVACGYYHSLALSKASEVFCWGQNKYGQLGLGTDCKKQTSPQLLKSLLGIPFMQVAAGGAHSFVLTLSGAIFGWGRNKFGQLGLNDENDRYVPNLLKSLRSQKIVYICCGEDHTAALTKEGGVFTFGAGGYGQLGHNSTSHEINPRKVFELMGSIVTEIACGRQHTSAFVPSSGRIYSFGLGGNGQLGTGSTSNRKSPFTVKGNWYPYNGQCLPDIDSEEYFCVKRIFSGGDQSFSHYSSPQNCGPPDDFRCPNPTKQIWTVNEALIQKWLSYPSGRFPVEIANEIDGTFSSSGCLNGSFLAVSNDDHYRTGTRFSGVDMNAARLLFHKLIQPDHPQISQQVAASLEKNLIPKLTSSLPDVEALRFYLTLPECPLMSDSNNFTTIAIPFGTALVNLEKAPLKVLENWWSVLEPPLFLKIVELFKEVVVHLLKLYKIGIPPSERRIFNSFLHTALKVLEILHRVNEKMGQIIQYDKFYIHEVQELIDIRNDYINWVQQQAYGMDVNHGLTELADIPVTICTYPFVFDAQAKTTLLQTDAVLQMQMAIDQAHRQNVSSLFLPVIESVNPCLILVVRRENIVGDAMEVLRKTKNIDYKKPLKVIFVGEDAVDAGGVRKEFFLLIMRELLDPKYGMFRYYEDSRLIWFSDKTFEDSDLFHLIGVICGLAIYNCTIVDLHFPLALYKKLLKKKPSLDDLKELMPDVGRSMQQLLDYPEDDIEETFCLNFTITVENFGATEVKELVLNGADTAVNKQNRQEFVDAYVDYIFNKSVASLFDAFHAGFHKVCGGKVLLLFQPNELQAMVIGNTNYDWKELEKNTEYKGEYWAEHPTIKIFWEVFHELPLEKKKQFLLFLTGSDRIPILGMKSLKLVIQSTGGGEEYLPVSHTCFNLLDLPKYTEKETLRSKLIQAIDHNEGFSLI [HERC4]”, in the data set with HeLa Kyoto [1], the “solubility in G1/S (log2)” value was -0.169. The melting temperature in the data set on HeLa Kyoto [2] (cell cycle stage: G1/S) was determined as 51.4 °C; in the data set with HeLa Kyoto [2] (cell cycle stage: mitosis) it was 51 °C. Also, the “solubility change mitosis (log2)” value with HeLa Kyoto [3] is -0.179. Besides, the thermal stability score with HeLa Kyoto [4] (setting [5]) was -0.179; with HeLa Kyoto [4] (cell cycle stage: mitosis), -0.361.

Turning to “MGVRGLQGFVGSTCPHICTVVNFKELAEHHRSKYPGCTPTIVVDAMCCLRYWYTPESWICGGQWREYFSALRDFVKTFTAAGIKLIFFFDGMVEQDKRDEWVKRRLKNNREISRIFHYIKSHKEQPGRNMFFIPSGLAVFTRFALKTLGQETLCSLQEADYEVASYGLQHNCLGILGEDTDYLIYDTCPYFSISELCLESLDTVMLCREKLCESLGLCVADLPLLACLLGNDIIPEGMFESFRYKCLSSYTSVKENFDKKGNIILAVSDHISKVLYLYQGEKKLEEILPLGPNKALFYKGMASYLLPGQKSPWFFQKPKGVITLDKQVISTSSDAESREEVPMCSDAESRQEVPMCTGPESRREVPVYTDSEPRQEVPMCSDPEPRQEVPTCTGPESRREVPMCSDPEPRQEVPMCTGPEARQEVPMYTDSEPRQEVPMYTDSEPRQEVPMYTGSEPRQEVPMYTGPESRQEVPMYTGPESRQEVLIRTDPESRQEIMCTGHESKQEVPICTDPISKQEDSMCTHAEINQKLPVATDFEFKLEALMCTNPEIKQEDPTNVGPEVKQQVTMVSDTEILKVARTHHVQAESYLVYNIMSSGEIECSNTLEDELDQALPSQAFIYRPIRQRVYSLLLEDCQDVTSTCLAVKEWFVYPGNPLRHPDLVRPLQMTIPGGTPSLKILWLNQEPEIQVRRLDTLLACFNLSSSREELQAVESPFQALCCLLIYLFVQVDTLCLEDLHAFIAQALCLQGKSTSQLVNLQPDYINPRAVQLGSLLVRGLTTLVLVNSACGFPWKTSDFMPWNVFDGKLFHQKYLQSEKGYAVEVLLEQNRSRLTKFHNLKAVVCKACMKENRRITGRAHWGSHHAGRWGRQGSSYHRTGSGYSRSSQGQPWRDQGPGSRQYEHDQWRRY [FAM120B]”, the “solubility in G1/S (log2)” value in the data set on HeLa Kyoto [1] is -0.319. The melting temperature is 50.2 °C in the data set with HeLa Kyoto [2] (cell cycle stage: G1/S) and 49.1 °C with HeLa Kyoto [2] (cell cycle stage: mitosis). In addition, the “solubility change mitosis (log2)” value in the data set on HeLa Kyoto [3] was -0.0624. Moreover, the thermal stability score was 1.29 in the data set on HeLa Kyoto [4] (setting [5]) and 1.3 in the data set with HeLa Kyoto [4] (cell cycle stage: mitosis).

On to “MATEHVNGNGTEEPMDTTSAVIHSENFQTLLDAGLPQKVAEKLDEIYVAGLVAHSDLDERAIEALKEFNEDGALAVLQQFKDSDLSHVQNKSAFLCGVMKTYRQREKQGTKVADSSKGPDEAKIKALLERTGYTLDVTTGQRKYGGPPPDSVYSGQQPSVGTEIFVGKIPRDLFEDELVPLFEKAGPIWDLRLMMDPLTGLNRGYAFVTFCTKEAAQEAVKLYNNHEIRSGKHIGVCISVANNRLFVGSIPKSKTKEQILEEFSKVTEGLTDVILYHQPDDKKKNRGFCFLEYEDHKTAAQARRRLMSGKVKVWGNVGTVEWADPIEDPDPEVMAKVKVLFVRNLANTVTEEILEKAFSQFGKLERVKKLKDYAFIHFDERDGAVKAMEEMNGKDLEGENIEIVFAKPPDQKRKERKAQRQAAKNQMYDDYYYYGPPHMPPPTRGRGRGGRGGYGYPPDYYGYEDYYDYYGYDYHNYRGGYEDPYYGYEDFQVGARGRGGRGARGAAPSRGRGAAPPRGRAGYSQRGGPGSARGVRGARGGAQQQRGRGVRGARGGRGGNVGGKRKADGYNQPDSKRRQTNNQNWGSQPIAQQPLQGGDHSGNYGYKSENQEFYQDTFGQQWK [SYNCRIP]”, for which the “solubility in G1/S (log2)” value with HeLa Kyoto [1] came to 0.0281. Further, the figures for the melting temperature with HeLa Kyoto [2] (cell cycle stage: G1/S) and in the data set on HeLa Kyoto [2] (cell cycle stage: mitosis) were 51.3 °C and 50.8 °C, respectively. For the same substance, the “solubility change mitosis (log2)” value in the data set on HeLa Kyoto [3] was determined as 0.0879. The thermal stability score in the data set with HeLa Kyoto [4] (setting [5]) is -1.08; in the data set on HeLa Kyoto [4] (cell cycle stage: mitosis), -0.356.

Regarding “MAYQSLRLEYLQIPPVSRAYTTACVLTTAAVQLELITPFQLYFNPELIFKHFQIWRLITNFLFFGPVGFNFLFNMIFLYRYCRMLEEGSFRGRTADFVFMFLFGGFLMTLFGLFVSLVFLGQAFTIMLVYVWSRRNPYVRMNFFGLLNFQAPFLPWVLMGFSLLLGNSIIVDLLGIAVGHIYFFLEDVFPNQPGGIRILKTPSILKAIFDTPDEDPNYNPLPEERPGGFAWGEGQRLGG [DERL2]”, the “solubility in G1/S (log2)” value in the data set on HeLa Kyoto [1] is -0.0605. In the data set with HeLa Kyoto [2] (cell cycle stage: G1/S), this substance came in with a melting temperature of 54.4 °C. Moreover, in the data set with HeLa Kyoto [3], the “solubility change mitosis (log2)” value was -0.0878. Further, the thermal stability score with HeLa Kyoto [4] (setting [5]) is -0.206; in the data set with HeLa Kyoto [4] (cell cycle stage: mitosis), -1.33.

In the case of MMTAG2, the “solubility in G1/S (log2)” value with HeLa Kyoto [1] was -1.03. In addition, the melting temperature is 53 °C in the data set with HeLa Kyoto [2] (cell cycle stage: G1/S) and 51.3 °C with HeLa Kyoto [2] (cell cycle stage: mitosis). The “solubility change mitosis (log2)” value in the data set on HeLa Kyoto [3] was 0.48. Also, the thermal stability score is -3.08 in the data set with HeLa Kyoto [4] (setting [5]) and -5.63 with HeLa Kyoto [4] (cell cycle stage: mitosis).

The values above are taken from the supplement of paper PMC5998384.
